Measurements: paper PMC10272880

Molecular target: T1, LldR (Escherichia coli K-12 W3110 type-A) (UniProt P0ACL7)
T1 sequence: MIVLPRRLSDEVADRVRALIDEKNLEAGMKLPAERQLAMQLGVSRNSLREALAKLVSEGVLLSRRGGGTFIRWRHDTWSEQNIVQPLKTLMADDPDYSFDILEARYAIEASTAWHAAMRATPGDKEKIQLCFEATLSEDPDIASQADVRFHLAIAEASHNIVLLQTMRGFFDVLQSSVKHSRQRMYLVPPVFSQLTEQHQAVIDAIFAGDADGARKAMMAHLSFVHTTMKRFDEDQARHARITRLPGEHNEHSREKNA
Assay: EMSA
Details: EMSA: binding buffer (composition given for gSELEX: 10 mM Tris-HCl pH 7.8 at 4 °C, 3 mM Mg acetate, 150 mM NaCl, 1.25 mg/ml BSA), 37 °C 30 min, then effector …

| Sequence | binding |
| --- | --- |
| GATTTTCAACCAGATATGATCATGGTTACGCCATCTTATTGCCTTAACCTGATTGAAGAGCTGGAGCGGCAGTTGGGCGGTGATGCCAGCGGTTGCTCGCTGCGGGTTGGAGTATTTGGTGCTGAGCCGTGGACACAGGCCATGCGTAAAGAGATTGAGCGTCGCCTGGGGATCACCGCACTGGATATTTATGGCCTGTCAGAAGTGATGGGGCCGGGGGTGGCGATGGAGTGTCTGGAAACTACCGACGGCCCAACCATTTGGGAAGATCATTTCTATCCTGAAATTGTTA (double strand) [paaX promoter probe] | no binding |
| TCCCGGACCTCGTGCACAGGTAGGACCAATTTTTCTGTTCTTAACTCGCAAAACACGCACATCACGTAAGTGATTATGTTACATCAATTTAACATTGAGTTAACCAAGACAAGGTCACAGAGCTGGAAAAAAAATGGTCTGACCGGTAGCTAAAGAGATAGACGAAAACGAAAAGCCCGCTTAATAACTGTTCACAGAAGCAGCGCGCAAAAATCAGCTGCCACACAACACAACAAAGCGAAGCCTACTCATGAGCATCTTGTACGAAGAGCGTCTT (double strand) [glcD/glcC probe] | binds |
